Laboratory results reported in patent publication US20260151494A1 (ARO BIOTHERAPEUTICS, published 2026).

B1: CD71-binding FN3 domain SEQ ID NO 438 (designed binder)
chain: MLPAPKNLVVSRVTEDSARLSWTAPDAAFDSFFIGYLEPQPPGEAIDLWVPGSERSYDLTGLKPGTEYNVTIQGVKGGFPSYPLLAIFTT
B2: CD71-binding FN3 domain SEQ ID NO 439 (designed binder)
chain: MLPAPKNLVVSRVTEDSARLSWTAPDAAFDSFFIGYLEPQPPGEAIHLFVPGSERSYDLTGLKPGTEYNVTIQGVKGGFPSVPLNAYFTT
B3: CD71-binding FN3 domain SEQ ID NO 441 (designed binder)
chain: MLPAPKNLVVSRVTEDSARLSWTAPDAAFDSFFIGYLEPQPPGEAILLWVPGSERSYDLTGLKPGTEYNVTIQGVKGGFPSDPLIANFTT
B4: CD71-binding FN3 domain SEQ ID NO 443 (designed binder)
chain: MLPAPKNLVVSRVTEDSARLSWTAPDAAFDSFFIGYLEPQPPGEAIELYVPGSERSYDLTGLKPGTEYNVTIQGVKGGFPSDPLHAAFTT
B5: CD71-binding FN3 domain SEQ ID NO 445 (designed binder)
chain: MLPAPKNLVVSRVTEDSARLSWTAPDAAFDSFFIGYLEPQPPGEAIHLFVPGSERSYDLTGLKPGTEYNVTIQGVKGGFPSDPLVASFTT
B6: CD71-binding FN3 domain SEQ ID NO 381 (designed binder)
chain: MLPAPKNLVVSRVTEDSARLSWTAPDAAFDSFEIAYQELSLWGEAIVLTVPGSERSYDLTGLKPGTEYYVHIGGVKGGIWSRPLSAIFTT
B7: CD71-binding FN3 domain SEQ ID NO 348 (designed binder)
chain: MLPAPKNLVVSRVTEDSARLSWTAPDAAFDSFEISYFENTWYGEAIVLTVPGSERSYDLTGLKPGTEYVVWIGGVKGGLWSKPLSAIFTT
B8: CD71-binding FN3 domain SEQ ID NO 352 (designed binder)
chain: MLPAPKNLVVSRVTEDSARLSWTAPDAAFDSFEIAYQELSLWGEAIVLTVPGSERSYDLTGLKPGTEYYVHIGGVKGGIWSSPLSAIFTT
B9: CD71-binding FN3 domain SEQ ID NO 358 (designed binder)
chain: MLPAPKNLVVSRVTEDSARLSWTAPDAAFDSFEIGYWENAYKGEAIVLTVPGSERSYDLTGLKPGTEYVVFIGGVKGGVWSVPLSAIFTT
B10: CD71-binding FN3 domain SEQ ID NO 388 (designed binder)
chain: MLPAPKNLVVSRVTEDSARLSWTAPDAAFDSFEIAYFEYCLNGEAIVLTVPGSERSYDLTGLKPGTEYWVQIGGVKGGTWSWPLSAIFTT
B11: CD71-binding FN3 domain SEQ ID NO 390 (designed binder)
chain: MLPAPKNLVVSRVTEDSARLSWTAPDAAFDSFEIGYFERAWFGEAIVLTVPGSERSYDLTGLKPGTEYAVFIGGVKGGSYSYPLSAIFTT
B12: CD71-binding FN3 domain SEQ ID NO 407 (designed binder)
chain: MLPAPKNLVVSRVTEDSARLSWTAPDAAFDSFEIAYFETCRTGEAIVLTVPGSERSYDLTGLKPGTEYRVWIGGVKGGVWSRPLSAIFTT

Key:
[1] = target: T1, human CD71 extracellular domain (human, UniProt P02786 89-760); assay: primary ELISA; further: test concentration or dose not given here
T1 construct: also called hCD71; CD71-ECD
T1 sequence (P02786 89-760): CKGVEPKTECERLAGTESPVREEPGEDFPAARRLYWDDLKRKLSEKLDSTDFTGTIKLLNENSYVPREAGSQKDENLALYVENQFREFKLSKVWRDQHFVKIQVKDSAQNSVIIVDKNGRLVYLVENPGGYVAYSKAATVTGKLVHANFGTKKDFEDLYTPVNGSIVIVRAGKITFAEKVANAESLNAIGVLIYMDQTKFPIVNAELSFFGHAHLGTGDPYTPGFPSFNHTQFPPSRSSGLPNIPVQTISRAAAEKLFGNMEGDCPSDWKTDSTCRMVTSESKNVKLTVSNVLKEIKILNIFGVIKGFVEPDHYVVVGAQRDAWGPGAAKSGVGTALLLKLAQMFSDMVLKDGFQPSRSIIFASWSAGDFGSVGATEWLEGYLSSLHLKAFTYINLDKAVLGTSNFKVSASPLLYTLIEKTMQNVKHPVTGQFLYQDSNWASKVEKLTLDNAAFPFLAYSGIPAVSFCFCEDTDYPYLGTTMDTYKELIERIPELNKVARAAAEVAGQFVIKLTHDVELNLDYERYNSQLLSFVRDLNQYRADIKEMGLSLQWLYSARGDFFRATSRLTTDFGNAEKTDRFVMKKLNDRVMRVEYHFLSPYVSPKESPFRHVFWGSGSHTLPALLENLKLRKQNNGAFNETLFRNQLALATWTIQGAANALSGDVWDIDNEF

[2] = target: T2, human apical domain of CD71 (human, UniProt P02786 189-383, limits assumed); assay: primary ELISA; further: test concentration or dose not given here
T2 construct: domain: apical domain
T2 sequence (P02786 189-383 limits assumed): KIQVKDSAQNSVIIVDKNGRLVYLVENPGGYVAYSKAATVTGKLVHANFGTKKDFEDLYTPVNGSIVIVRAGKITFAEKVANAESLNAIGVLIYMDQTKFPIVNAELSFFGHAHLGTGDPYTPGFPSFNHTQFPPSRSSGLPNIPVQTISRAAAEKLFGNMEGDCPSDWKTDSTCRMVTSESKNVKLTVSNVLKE

[3] = target: T1, human CD71 extracellular domain; assay: primary ELISA; signal over HSA control; on RLU: test concentration or dose not given here
[4] = target: T2, human apical domain of CD71; assay: primary ELISA; signal over HSA control; on RLU: test concentration or dose not given here

Binder | RLU [1] [RLU] | RLU [2] [RLU] | hCD71:HSA [3] [ratio] | Apical domain:HSA [4] [ratio]
B1 | 4.96e+06 | 5.59e+06 | 143 | 161
B2 | 5.47e+06 | 6.56e+06 | 215 | 258
B3 | 5.92e+06 | 5.74e+06 | 32 | 31
B4 | 5.38e+06 | 4.4e+06 | 142 | 116
B5 | 6.65e+06 | 6.73e+06 | 76 | 77
B6 | 2.48e+06 | 5.14e+06 | 110 | 227
B7 | 1.83e+06 | 4.8e+06 | 115 | 302
B8 | 2.38e+06 | 5.42e+06 | 63 | 144
B9 | 2.34e+06 | 5.02e+06 | 39 | 83
B10 | 1.09e+06 | 4.29e+06 | 34 | 135
B11 | 1.93e+06 | 4.78e+06 | 53 | 131
B12 | 1.73e+06 | 4.64e+06 | 23 | 61
